According to US20140112930A1 (published 2014):
Residue numbers refer to the chain shown, from its start.

T1: Monomeric hAng-2FD (human, UniProt O15123 282-496)
T1 construct: also called fibrinogen-like domain of human Ang2; Human Ang-2FD
T1 sequence: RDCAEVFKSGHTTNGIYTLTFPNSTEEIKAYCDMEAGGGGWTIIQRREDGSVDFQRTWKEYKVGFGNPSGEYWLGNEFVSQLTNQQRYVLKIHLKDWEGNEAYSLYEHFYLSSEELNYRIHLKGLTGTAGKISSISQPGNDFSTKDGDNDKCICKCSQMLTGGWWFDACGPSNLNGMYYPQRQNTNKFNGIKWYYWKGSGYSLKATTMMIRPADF

T2: wild-type human Ang-2 (hAng-2-WT) (human, UniProt O15123 19-496)
T2 construct: called full-length wild-type; also called Full-length wild-type human Ang-2
T2 sequence: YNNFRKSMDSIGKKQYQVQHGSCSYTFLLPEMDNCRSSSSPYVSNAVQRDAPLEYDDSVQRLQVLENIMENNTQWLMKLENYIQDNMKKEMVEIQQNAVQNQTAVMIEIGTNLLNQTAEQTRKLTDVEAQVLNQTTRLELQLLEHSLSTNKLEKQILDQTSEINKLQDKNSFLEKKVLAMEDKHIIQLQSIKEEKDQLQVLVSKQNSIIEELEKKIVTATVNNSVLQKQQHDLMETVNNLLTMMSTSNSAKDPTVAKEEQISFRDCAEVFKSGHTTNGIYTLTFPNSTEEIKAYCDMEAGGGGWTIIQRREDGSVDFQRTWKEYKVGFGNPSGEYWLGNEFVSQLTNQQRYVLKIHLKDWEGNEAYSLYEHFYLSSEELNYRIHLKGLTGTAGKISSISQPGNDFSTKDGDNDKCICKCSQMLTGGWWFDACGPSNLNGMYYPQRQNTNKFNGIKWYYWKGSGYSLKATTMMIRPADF

B1: H1H724N (antibody, V domains shown)
VH: QVQLVESGGGVVQPGRSLRLSCAASGFTLSNYGMHWVRQAPGKGLEWVAVIWHDGSNTYYADSVKGRFTISRDNSKNTLYLQMNSLRAEDTAVYYCTREGLDFWSGYYPNWFDPWGQGTLVTVSS
VL: DIQMTQSPSSLSASVGDRVTITCRASQGIRNDLGWYQQKPGKAPKRLIYAASNLQGGVPSRFSGSGSGTEFTLTISSLQPEDFAAYYCLQHNIYPLTFGGGTKVEIK
B2: H1H732N (antibody, V domains shown)
VH: EVQLVESGGGLVRPGGSLRLSCAASGFTFTNAWMSWVRQAPGKGLEWIGQIKSKTDGGTIDYAAPVKGRFTVSRDDSENTLFLQMNSLKTEDTAVYYCAGNWNYVDFDYWGQGTLVTVSS
VL: B1 VL with G28D, N53S, A85T, I93S, L96F, G100P, E105D
B3: H1H743N (antibody, V domains shown)
VH: EVQLLESGGGLVQPGGSLRLSCAASGFTFRKYAMSWVRQAPGKGLEWVSVISVSGGNTYYADSVKGRFTISRDNSKNTLYLQLNSLRAEDTAVYYCAKDLTDIVLMVYVDYWGQGTLVTVSS
VL: DIQMTQSPSSVSASVGDRVTITCRASQDIDRWLAWYQQKPGKAPKLLIYAASSLQSGVPSRFSGSGSGTDFTLTISTLQPEDFATYYCQQANSLPFTFGGGTKVEIK
B4: H1H706P (antibody, V domains shown)
VH: QVQLVESGGGVVQPGRSLRLSCAASGFTFSSYGMHWVRQAPDKGLEWVAVKWDDGSNKYYADSVKGRFTISRDNSKNTLYLQMNSLRAEDTAVYYCAREGPYDFYSGYGAFDIWGQGTMVTVSS
VL: DIQMTQSPSSLSASVGDRVTITCRASQGISNYLAWFQQKPGKAPKSLIYAASSLQSGVPSKFSGSGSGTDFTLTISSLQPEDFATYYCQQYNSYPRTFGQGTKVEIK
B5: H1H704P (antibody, V domains shown)
VH: QVQLVESGGDVVQPGRSLRLSCAASGFTFSSYGMHWVRQAPGKGLEWVAIIWYDGSNKYYADSVKGRFTISRDNSKNTLYLQMNSLRVEDTAVYSCARDFSISSRHFDYWGQGTLVTVSS
VL: DIQMTQSPSSLSASVGDRVTITCRASQAINNYLAWFQQKPGKAPKSLIYATSNLQSGVPSQFSGSGSGTDYTLTISSLQPEDFATYYCQQYYIYPITFGQGTRLEIK
B6: H1H728N (antibody, V domains shown)
VH: EVQLVESGGDLVQPGGSLRLSCTASGFTFSKYWMTWVRQAPGRGLEWVANIKEDGNEKYFLDSVKGRFTISRDNAKDLLFLQMNSLRGEDTAVYYCVRDRGIEVAGPFDYWGQGTLVTVSS
VL: DIQMTQSPSTLSASVGDRVTVTCRASQTIINWLAWYQQKPGKAPKLLISKASSLESGVPSRFSGSGSGTEFTLTISSLQPDDFATYYCQQYNRYWTFGQGTMVEIK
B7: H1H730N (antibody, V domains shown)
VH: EVQLVESGGGLVQPGGSLRLSCAASGFAFRSYWMTWVRQAPGKGLEWVANIQQDGNDKYYVDSVKGRFTISRDNAKNSLYLQMNSLRAEDTAVYYCARDTGIAEAGPFDYWGQGTLVTVSS
VL: B6 VL with T20S, V21I, N31S, K45R, S49Y, S76N, M102K
B8: H1H749N (antibody, V domains shown)
VH: QVQLVESGGGVVQPGRSLRLSCAASGFTFSSYGMHWVRQAPGKGLEWVAVIWYDEFNKYYADSVKGRFTISRDNSKNTLYLQMNSLRAEDTAVYYCARERESGYSYGFDYWGQGTLVTVSS
VL: EIVMTQSPATLSVSPGERATLSCRAGQSVSSNLAWYQQKPGQAPRLLIYGASTRATGIPARFSGSGSGTEFTLTISSLQSEDFAVYYCQQYNNWWTFGQGTKVEIK
B9: H1H742N (antibody, V domains shown)
VH: DVQLLESGGDLVQPGGSLRLSCEASGFTFRNYVMIWVRQAPGKGLEWVSGISNSGGTTHYTDSVKGRFTISRDNSKNTLYLQINSLRAEDTAVYYCAKGYLDTSLIEGNWFDPWGQGTLVTVSS
VL: NIVMTQSPLSLPVTPGEPASISCRSSQSLLHSNGFNYLNWFLQKPGQSPQLLIYLGSNRASGVPDKFSGSGSGTDFTLNINRVEAEDVGIYFCMQTLQTPLTFGGGTKVEIK
B10: H1H691P (antibody, V domains shown)
VH: EVQLVESGGGLVQPGRSLRLSCAASGFTFDDYAMHWVRQAPGKGLEWVSGISWNSGDIGYADSVKGRFTISRDNAKNSLYLQMNSLRAQDTALYYCAKAYGDYYYFYGMDVWGQGTTVTVS
VL: EIVLTQSPGTLSLSPGERATLSCRASQSVSSSYLAWYQQKPGQAPRLLIFSASSRATGIPDRFSGSGSGTDFTLTISRLEPEDFAVYYCQQYDNSLTFGGGTKVEIK
B11: H1H707P (antibody, V domains shown)
VH: B4 VH
VL: not shown

The binders below were run against T3, human bow-Ang-2 tetrameric construct (hBA2) (human) (assay: SPR, captured Ab).
T3 construct: also called human BA2; hBA2-hIgG1
T3 sequence (chain, as listed by the source limits assumed): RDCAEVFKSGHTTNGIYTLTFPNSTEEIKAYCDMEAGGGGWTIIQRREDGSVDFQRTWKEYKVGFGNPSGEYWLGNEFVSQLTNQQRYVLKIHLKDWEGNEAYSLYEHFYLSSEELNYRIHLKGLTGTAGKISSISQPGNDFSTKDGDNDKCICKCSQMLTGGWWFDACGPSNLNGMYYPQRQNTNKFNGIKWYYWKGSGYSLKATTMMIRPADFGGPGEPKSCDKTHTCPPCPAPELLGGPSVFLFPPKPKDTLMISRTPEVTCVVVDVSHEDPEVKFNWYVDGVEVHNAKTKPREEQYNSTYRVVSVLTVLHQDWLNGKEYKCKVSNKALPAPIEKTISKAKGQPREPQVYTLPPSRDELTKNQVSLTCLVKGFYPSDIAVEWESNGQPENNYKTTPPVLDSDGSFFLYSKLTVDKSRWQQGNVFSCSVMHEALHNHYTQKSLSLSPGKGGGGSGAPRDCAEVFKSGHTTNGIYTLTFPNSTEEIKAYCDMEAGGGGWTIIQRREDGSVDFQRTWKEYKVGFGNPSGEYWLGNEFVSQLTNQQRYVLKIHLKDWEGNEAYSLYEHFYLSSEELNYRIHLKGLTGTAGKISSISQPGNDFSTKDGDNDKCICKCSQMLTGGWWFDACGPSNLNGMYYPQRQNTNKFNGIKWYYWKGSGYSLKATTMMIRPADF
Work on B1 yielded a Kd of 23.3 pM and a T1/2 of 5.38 h. With B2 the Kd was 132 pM and the T1/2 was 1.22 h. In the case of B3, the Kd is reported as 9.71 pM and the T1/2 is reported as 18.6 h. Binder B4 has a Kd of 79.1 pM and a T1/2 of 1.06 h. With B5 the Kd was 93.9 pM and the T1/2 was 1.96 h. Binder B6 has a Kd of 41.8 pM and a T1/2 of 3.08 h. With B7 the Kd was 55.9 pM and the T1/2 was 2.53 h. B8 was tested, and the Kd was 32.5 pM and the T1/2 was 3.92 h. In the case of B9, the Kd is reported as 72.1 pM and the T1/2 is reported as 1.45 h.

The binders below were run against T4, Dimeric Human Ang-2FD conjugated to human IgG1 (human) (assay: SPR, captured Ab, RT).
T4 construct: also called Human Ang-2FD-hFc; hAng-2FD-hFc
Procedure: (§1) Antibody was captured on a goat anti-mouse IgG polyclonal antibody surface, a goat anti-human κ polyclonal antibody (Southern Biotech, Birmingham, Ala.) surface or a goat anti-human IgG polyclonal antibody (Jackson Immuno Research Lab, West Grove, Pa.) surface created through direct amine coupling to a BIACORE™ CM5 sensor chip to form a captured antibody surface. […] Antigen-antibody binding and dissociation were monitored in real time at room temperature. Kinetic analysis was performed to calculate KD and half-life of antigen/antibody complex dissociation.
B10 showed a Kd of 220 pM and a T1/2 of 0.642 h. For B1, the Kd was 115 pM and the T1/2 was 1.78 h. In the case of B2, the Kd is reported as 386 pM and the T1/2 is reported as 0.95 h. B3 was tested, and the Kd was 88.2 pM and the T1/2 was 4.23 h. With B4 the Kd was 201 pM and the T1/2 was 0.84 h. Work on B11 yielded a Kd of 262 pM and a T1/2 of 0.443 h. In the case of B5, the Kd is reported as 331 pM and the T1/2 is reported as 1.43 h. B6 gave a Kd of 162 pM and a T1/2 of 1.35 h. Work on B7 yielded a Kd of 234 pM and a T1/2 of 1.03 h. Work on B8 yielded a Kd of 118 pM and a T1/2 of 1.82 h. Work on B9 yielded a Kd of 186 pM and a T1/2 of 1.08 h.

Each binder was assayed against T5, Dimeric Monkey Ang-2FD conjugated to human IgG1 (monkey (Macca fascicularis); human) (assay: SPR, captured Ab, RT).
T5 construct: also called Monkey Ang-2FD-hFc
T5 sequence (chain, as listed by the source limits assumed): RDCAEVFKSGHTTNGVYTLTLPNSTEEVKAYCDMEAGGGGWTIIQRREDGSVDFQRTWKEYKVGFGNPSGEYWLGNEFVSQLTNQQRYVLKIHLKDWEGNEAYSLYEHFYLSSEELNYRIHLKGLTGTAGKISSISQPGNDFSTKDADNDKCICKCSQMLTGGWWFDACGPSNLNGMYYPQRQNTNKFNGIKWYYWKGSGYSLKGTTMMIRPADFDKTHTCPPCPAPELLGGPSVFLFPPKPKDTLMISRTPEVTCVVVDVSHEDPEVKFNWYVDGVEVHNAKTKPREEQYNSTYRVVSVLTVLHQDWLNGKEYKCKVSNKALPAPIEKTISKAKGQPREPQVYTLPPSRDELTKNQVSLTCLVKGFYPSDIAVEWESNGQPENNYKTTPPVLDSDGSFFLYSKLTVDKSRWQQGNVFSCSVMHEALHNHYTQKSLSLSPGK
Procedure: as §1
For B10, the Kd was 290 pM and the T1/2 was 0.683 h. Binder B1 has a Kd of 239 pM and a T1/2 of 2.88 h. For B2, the Kd was 439 pM and the T1/2 was 1.97 h. With B3 the Kd was 96.5 pM and the T1/2 was 13 h. B4 gave a Kd of 164 pM and a T1/2 of 0.888 h. Work on B11 yielded a Kd of 283 pM and a T1/2 of 0.372 h. B5 gave a Kd of 818 pM and a T1/2 of 0.558 h. Binder B6 has a Kd of 2000 pM and a T1/2 of 1.28 h. B7 gave a Kd of 3400 pM and a T1/2 of 1.45 h. With B8 the Kd was 407 pM and the T1/2 was 2.38 h. In the case of B9, the Kd is reported as 683 pM and the T1/2 is reported as 1.55 h.

These binders were tested against T6, Dimeric Mouse Ang-2FD conjugated to human IgG1 (mouse (Mus musculus); human) (assay: SPR, captured Ab, RT).
T6 construct: also called Mouse Ang-2FD-hFc
T6 sequence (chain, as listed by the source limits assumed): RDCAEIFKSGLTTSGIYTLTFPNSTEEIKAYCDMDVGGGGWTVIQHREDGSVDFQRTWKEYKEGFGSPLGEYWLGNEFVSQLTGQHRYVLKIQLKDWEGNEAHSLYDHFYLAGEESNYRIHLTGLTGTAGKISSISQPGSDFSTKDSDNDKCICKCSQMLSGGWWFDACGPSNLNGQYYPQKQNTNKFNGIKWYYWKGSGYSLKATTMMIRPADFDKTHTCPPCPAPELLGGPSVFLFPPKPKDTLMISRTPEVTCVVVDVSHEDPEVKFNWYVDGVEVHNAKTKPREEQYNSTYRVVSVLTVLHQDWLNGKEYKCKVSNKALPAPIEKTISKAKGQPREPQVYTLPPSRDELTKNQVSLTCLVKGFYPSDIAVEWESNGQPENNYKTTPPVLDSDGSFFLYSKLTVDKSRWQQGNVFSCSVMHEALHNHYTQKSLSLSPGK
Procedure: as §1
With B10 the Kd was 220 pM and the T1/2 was 0.73 h. B1 gave a Kd of 185 pM and a T1/2 of 1.4 h. B2 showed a Kd of 529 pM and a T1/2 of 0.85 h. With B3 the Kd was 124 pM and the T1/2 was 3.88 h. With B4 the Kd was 357 pM and the T1/2 was 0.783 h. In the case of B11, the Kd is reported as 328 pM and the T1/2 is reported as 0.573 h. With B5 the Kd was 484 pM and the T1/2 was 1.03 h. In the case of B6, the Kd is reported as 5760 pM and the T1/2 is reported as 0.333 h. In the case of B7, the Kd is reported as 97.1 pM and the T1/2 is reported as 1.5 h. B8 showed a Kd of 177 pM and a T1/2 of 1.6 h. B9 gave a Kd of 276 pM and a T1/2 of 0.967 h.

These binders were tested against T1, Monomeric hAng-2FD (assay: SPR, captured Ab).
B1 was tested, and the Kd was 2400 pM and the T1/2 was 0.222 h. Binder B2 has a Kd of 264000 pM and a T1/2 of 0.00367 h. Binder B3 has a Kd of 2350 pM and a T1/2 of 0.55 h. With B4 the T1/2 was 0.017 h. Binder B5 has a Kd of 390 pM and a T1/2 of 0.0552 h. For B6, the Kd was 1180 pM and the T1/2 was 0.0977 h. In the case of B7, the Kd is reported as 2840 pM and the T1/2 is reported as 0.0573 h. B8 was tested, and the Kd was 1130 pM and the T1/2 was 0.558 h. In the case of B9, the Kd is reported as 486000 pM and the T1/2 is reported as 0.0382 h.

Each binder was assayed against T2, wild-type human Ang-2 (hAng-2-WT) (assay: SPR, captured Ab).
With B1 the Kd was 22.6 pM and the T1/2 was 14.9 h. With B2 the Kd was 202 pM and the T1/2 was 4.4 h. In the case of B3, the Kd is reported as 9.48 pM and the T1/2 is reported as 65.5 h. Work on B4 yielded a Kd of 27.4 pM and a T1/2 of 11 h. In the case of B5, the Kd is reported as 36.2 pM and the T1/2 is reported as 12.5 h. B6 gave a Kd of 43 pM and a T1/2 of 9.43 h. B7 was tested, and the Kd was 47.5 pM and the T1/2 was 8.9 h. In the case of B8, the Kd is reported as 12.5 pM and the T1/2 is reported as 30.6 h. In the case of B9, the Kd is reported as 44.9 pM and the T1/2 is reported as 11.1 h.
